# B1: Indian hedgehog protein (Mus musculus), P97812 (parent)
# chain: MSPAWLRPRLRFCLFLLLLLLVPAARGCGPGRVVGSRRRPPRKLVPLAYKQFSPNVPEKTLGASGRYEGKIARSSERFKELTPNYNPDIIFKDEENTGADRLMTQRCKDRLNSLAISVMNQWPGVKLRVTEGWDEDGHHSEESLHYEGRAVDITTSDRDRNKYGLLARLAVEAGFDWVYYESKAHVHCSVKSEHSAAAKTGGCFPAGAQVRLENGERVALSAVKPGDRVLAMGEDGTPTFSDVLIFLDREPNRLRAFQVIETQDPPRRLALTPAHLLFIADNHTEPAAHFRATFASHVQPGQYVLVSGVPGLQPARVAAVSTHVALGSYAPLTRHGTLVVEDVVASCFAAVADHHLAQLAFWPLRLFPSLAWGSWTPSEGVHWYPQMLYRLGRLLLEESTFHPLGMSGAGS
# partner: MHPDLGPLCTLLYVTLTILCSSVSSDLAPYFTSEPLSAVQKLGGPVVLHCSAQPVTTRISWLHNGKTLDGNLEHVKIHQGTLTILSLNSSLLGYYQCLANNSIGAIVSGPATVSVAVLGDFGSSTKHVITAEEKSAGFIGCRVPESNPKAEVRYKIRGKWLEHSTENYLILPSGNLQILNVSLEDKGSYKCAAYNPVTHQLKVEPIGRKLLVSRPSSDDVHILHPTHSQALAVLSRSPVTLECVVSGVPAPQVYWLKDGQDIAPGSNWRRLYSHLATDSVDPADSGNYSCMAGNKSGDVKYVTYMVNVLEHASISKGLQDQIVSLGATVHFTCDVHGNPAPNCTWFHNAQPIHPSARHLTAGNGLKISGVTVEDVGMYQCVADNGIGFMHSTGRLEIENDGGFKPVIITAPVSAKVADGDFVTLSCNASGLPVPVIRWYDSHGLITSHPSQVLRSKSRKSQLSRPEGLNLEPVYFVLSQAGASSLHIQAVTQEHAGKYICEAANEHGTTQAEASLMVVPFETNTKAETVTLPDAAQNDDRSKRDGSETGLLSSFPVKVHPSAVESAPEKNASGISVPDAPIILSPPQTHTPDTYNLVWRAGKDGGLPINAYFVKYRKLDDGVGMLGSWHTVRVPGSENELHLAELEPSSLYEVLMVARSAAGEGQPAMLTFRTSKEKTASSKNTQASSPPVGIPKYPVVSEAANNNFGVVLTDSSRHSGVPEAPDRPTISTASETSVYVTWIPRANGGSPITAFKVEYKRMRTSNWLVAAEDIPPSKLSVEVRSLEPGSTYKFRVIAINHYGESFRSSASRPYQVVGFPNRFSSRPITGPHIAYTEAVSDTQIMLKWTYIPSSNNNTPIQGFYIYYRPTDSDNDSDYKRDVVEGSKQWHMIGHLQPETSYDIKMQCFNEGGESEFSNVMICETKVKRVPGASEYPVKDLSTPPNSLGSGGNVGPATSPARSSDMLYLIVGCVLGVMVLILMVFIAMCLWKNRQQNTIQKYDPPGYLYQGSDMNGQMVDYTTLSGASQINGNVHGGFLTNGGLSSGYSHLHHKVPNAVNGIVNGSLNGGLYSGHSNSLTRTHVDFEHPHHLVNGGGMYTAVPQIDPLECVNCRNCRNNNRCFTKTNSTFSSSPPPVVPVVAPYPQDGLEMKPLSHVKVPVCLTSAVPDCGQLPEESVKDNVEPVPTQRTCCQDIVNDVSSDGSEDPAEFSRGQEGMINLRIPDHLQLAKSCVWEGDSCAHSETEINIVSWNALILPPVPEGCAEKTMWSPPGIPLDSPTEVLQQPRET
# Variants of: B1
# Settings: with cdon_human CDON
row,Variant,effect of a mutation on the interaction
1,E131K,disrupting interaction

# Source: IntAct's records for PubMed 18794898
